In a protein production outcome set (Wang et al. 2014):

Experiment: label from the status in PepcDB records
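Note: failed if final PepcDB status was selected cloned or expressed and not failed if soluble or beyond.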

Question: Which protein production does the source give for “MKVLITDFDLFAKVGGGQTFYRSLIRKNPDIDFYYLIDKEARVTERPDNAHGVPFQEKYFLADLNNFFDVNPPKWVYRSFIRASNIATSVAGMEFDLIDSPDYEQWAIFLRPALDYHRVKFAKIALSLHGKISTTLKLDWFNQGKENIPLELEEWKQYATVDLRYGISKSYIDEWQSLSRFSAHYYHPLHFFELPQPLEAIASGDRPDLNFVGRTEKRKGPDIFIDIAWWLNRNLYHEANIIGPHSFNDTGTISSETYLRSMLGDRQSPVKFLPPKPQQELMGLFARKTVTFVPSRYDTLNLVALESLFSGCPTVVGGGAGVCRLLKEDFPDVPFVEIDLDNIYSCLPAIENILSDYNNYRRRLVDSVKNSTAIADSPILADIYQQTGQYEEEIRDELQSWYGQLMGYWVSTQENVSFLQPLKAQLKPTLKQIKNNLKSTAGQLKGKILQPLADDRNAQLVKAPNLLKKYKEAFNATEQTAKDLAEKIQMGWRLGSGYESEFQGVRGKLATNYRIDRVRLWRELARIEELRGNTLVSATYKVRALRALGSDQFGDLPFVLRTLTEYGFPKEMAAVSALYGQPSEREERCLSLIEQARLDNLANPAGDEYEIWDDRRGDGPYRASIIVSLYNAAAKLPLFLKTLQHQTLIKRGEAEVVLVDSGSPGNEYEVFKDLAPTLGYPLLYARSPQRETIQSAWNRGIKLAKSPYLAFLGVDETILPDCLEILAGELDQDPELDWAIGHSLVTNVDMQGGWVSDIMPYDRTGYEQDLVYLETCYLSWVGALYRKSIHERFGYYDQSFRGAGDTEFKNRVMPFIKSKVVDKMLGLFWNYPDERTTQSPATEIEDMRAWYLHRTLAGVKYAFQRRSPREVENLLYHCLGYRKSYCKHTSTDFDHAHNLVTYLEKVDPNAEALKYAPGIEALLGTYRSLDWLPKLSKFSPLNSMLTARKLTKQWEQEHQQSWPEDRLFSPHYSIFNDNRHEQHSFLWFTDITASKK” here?
Answer: The protein production was “failed”.

Question: For “MALPDRRAEGVAASLAGALIPAFLAAQDRIIEMVPFRTSATLFAFVLTIVFLAFALRVLFSFRDVRSAAVETALFATGFLYVPLLLTHLAWLRALPDGVGWIFLVLVIVMSGDTAAYYVGSNLGRRKLYPSVSPNKSVEGAIGGLLGSLAGTFVARLTFFPGLTVLDCIATALLLGVLGQVGDLFESLLKRSFGVKDSGTIVPGHGGILDRLDSILFAVPAAYYYALFVFMNR”, which protein production is on record?
Answer: The protein production was “failed”.

Question: Which protein production does the source give for “MIRNTSNGWGSVSRWLHWILALTIIGMIGFGWWMNHIPARPDRFFYRSIHADIGYVILLLTVLRLVWRVVNPTPALPADSQPWQRLAARISHGALYLAVIAVIVLGWAHSGAHAPDYSDFFGLFHVPQFTSPDRAAANAYEDRHILFAYVLLALIAVHVVAALWHHFIRRDRVVTRMVADEAG” here?
Answer: Its protein production is “failed”.

Question: Which protein production does the source give for “MAKLHIPVMVDEVVHCLSPQKGQIFLDMTFGSGGHTKAILQKESDIVLYALDRDPTAYALAEHLSELYPKQIRAMLGQFSQAEALLMKAGVQPGTFDGVLMDLGCSSMQLDTPERGFSLRKDGSLDMRMDGGRSTGTCIYPKNIRGGEACQENRFSNCSGTQHLPHHQNPAACQHRCRSISSLCYLYTERLTTAIYPYCHQDFPGSSHICEQ” here?
Answer: Its protein production is “failed”.

Question: With “MAKAAKRFRTPSTTRVLYVRHAHAHGRQTWGGDDNKRPLDKKGRRQAEMLVPMLLPFKPTAIYSAVPDRCQATALPLADELGLDVSVNRLFGDDAWETDPEACKKRFTDVVAQGGVPMIVGQGDIIPEMIKWFSENGTLPIDEKIKAKKGSVWVLSFHDGVFTGADYLEHHHHHH” as the sequence, how does the protein production read?
Answer: Its protein production is “failed”.

Question: For “PNFSHWGPPRIVEIFREPNVSLGISIVGGQTVIKRLKNGEELKGIFIKQVLEDSPAGKTNALKTGDKILEVSGVDLQNASHSEAVEAIKNAGNPVVFIVQSLSSTPRVIP”, which protein production is on record?
Answer: Its protein production is “not failed”.

Question: For “MFVGVDHAGRDWSWKEPGSTKACRNFMITLFAEWALPATTGQASGRRAMARKFMVPALAVLAFAIAAPAFAQVPANIAKAVADPSRPAAETARDAARRPGEILAMAELKPGDTVVDYIMGGGYFTRIISGAVGPQGVVYAYQPAEFIRFAARYGESLKAVTAALANSKPLDGPITALDLPDNVDAVITVQNYHDMHLKPFPTDTAAKANAEIFKSLKPGGVFLVIDHSAIAGSGITAADTLHRIDIAAVKQEVEAAGFKLEAESGLLADPADARTINVFDPAIRGKTDQFILKFRKPK”, which protein production is on record?
Answer: The protein production was “failed”.

Question: For “MSDNNDRMYELEYPSPEVSGQTAGGPTLIVALQGYADAGHAVESSSSHLMDALDHRLIASFNNDELIDYRSRRPVVVIEHNEVTSMDELNLGLHVVRDNDNKPFLMLSGPEPDLRWGDFSNAVVDLVEKFGVENTICLYAAPMTVPHTRPTVVTAHGNSTDRLKDQVSLDTRMTVPGSASLMLEKLLKDKGKNVSGYTVHVPHYVSASPYPAATLKLLQSIADSADLNLPLLALERDAEKVHRQLMEQTEESSEIQRVVGALEQQYDSELERYRNRHPQAVMPGESELPSGDEIGAEFEKFLADLDDQGGSDHKETPEA”, which protein production is on record?
Answer: The protein production was “not failed”.

Question: For “MSLAADSADAGFARDMSVHHQQAVEMSYIVRDRTDDEEVRRLAYDIAQTQANQRGMMIGWLDLWALPKVSSDPPMTWMGMGDAPSAGEGSLMPGMATDAEMKKLGTLDGKQAEVYYLQLMTEHHRGGVHMAKGCVERCTVGVEKRLARGMVESQESEIRLMADLLAERGAKEGHHHHHH”, which protein production is on record?
Answer: The protein production was “not failed”.

Question: For “SNSALYNVDAGHRAVIFDRFRGVQDIVVGEGTHFLIPWVQKPIIFDCRSRPRNVPVITGSKDLQNVNITLRILFRPVASQLPRIYTSIGEDYDERVLPSITTEILKSVVARFDAGELITQRELVSRQVSDDLTERAATFGLILDDVSLTHLTFGKEFTEAVEAKQVAQQEAERARFVVEKAEQQKKAAIISAEGDSKAAELIANSLATAGDGLIELRKLEAAEDIAYQLSRSRNITYLPAGQSVLLQLPQ”, which protein production is on record?
Answer: The protein production was “not failed”.

Question: For “VEGFKVMRDGIKVASDETLLTPRFYTTDFDEMERLFSLELNKNMDMEEFEAMLNEFKLDYNQRHFVRNETFKEAAEKIQGPTRKIFIEFLERSCTAEFSGFLLYKELGRRLKATNPVVAEIFTLMSRDEARHAGFLNKAMSDFNLALDLGFLTKNRKYTFFKPKFIFYATYLSEKIGYWRYISIYRHLQRNPDNQLYPLFEYFENWCQDENRHGDFFTAVLKARPEMVNDWAAKLWSRFFCLSVYITMYLNDHQRDAFYSSLGLNTTQFNQHVIIETNKSTERIFPAVPDVENPEFFRRMDLLVKYNAQLVNIGSMNLPSPIKAIMKAPILERMVAEVFQVFIMTPKESGSYDLDANKTALVY”, which protein production is on record?
Answer: The protein production was “not failed”.

Question: With “MPKASDIKKGSAIEHNGKVFFVKEISKLTPSGRAGATLFRMRMYDVATGAKSDESFKADDMINLADFSRRSATFSYVDGNEYVFMDSEDYTPYNFNKEAIEEELLFITEETQGLQILIVDGAPVAIELPSAVDLEIVETAPSIKGASASARTKPATMTTGLTVQVPEYIANGEKVKINTTEHKFMSRALEHHHHHH” as the sequence, how does the protein production read?
Answer: The protein production was “failed”.

Question: For “MANLKSLPVGDKAPEVVHMVIEVPRGSGNKYEYDPDLGAIKLDRVLPGAQFYPGDYGFIPSTLAEDGDPLDGLVLSTYPLLPGVVVEVRVVGLLLMEDEKGGDAKVIGVVAEDQRLDHIQDIGDVPEGVKQEIQHFFETYKALEAKKGKWVKVTGWRDRKAALEEVRACIARYKG”, which protein production is on record?
Answer: Its protein production is “not failed”.

Question: Which protein production does the source give for “MRKVRIANEQTEESDIIKIVHLSDIHFSEAYYMPEIADSMLQIINESSPDIVIITGDLTENGFAAEYNGAKNFIDKIECKNKVIVPGNHDSKNAGYLFFEDIFKARSSSGYFGDVTVIGLDSSQPELDDGHIGRENYGWIESTFSTGSFKVFALHHHLIPIPKTGRGNNVLVDAGDVLELLDRSGVNLVLCGHWHIPWVWRLNDMFIISAGTVCSSKIRGKTSQCYNLIELETPESECTRWHLRITRVFSSGIKELVVDNIV” here?
Answer: Its protein production is “failed”.

Question: Which protein production does the source give for “MVAEITAPKSMGKVLGYNFSKVTAGNASVILTSSMSVDANGETNFERALTDMDMRIPSGIRTKKTVFHCSLNPHPDDRLTTEQLQDIAREYMEKMGYGKQPYIVFKHNDIAREHIHIVSLRVDSYGKKLPYKFEARRSKRITDELERKYGLIPSGNRRSRHETHAENVLKTADVKQGDVRRQIAAVVRAVLKRYAFRSLGEMNLLLARYHIVAEEVRKEYKGKRYDGLVYAITDDAGEKRMIPLHAGKIGRGTGYAAVVRHFEKSKALIKEKAPMLRNAIIEVMQSSPDKERFSEEMKKRGIDVHIRQNEQGRIYGITFISDEAGIAANGSRLGKGYSAHVFNDYFLGG” here?
Answer: The protein production was “not failed”.

Question: For “MVSRRLQDSANRLFGKAATFIENGKYDRALESLKDVDKIMKKEKDPEISFHTLFLKGYTISKAGDPEGALEFYGEALKIIEPLFSGEPGKKNYQKFISNMIEEIGSSFDELNDEERAEELLGPMEKQFEKVVRTFEELVKSDPENQEYLSGFLEIIGSMGVCYQAGQLMDQAVKLFDKKIDIYEKLFELESGETDLLGDFDEDIELYGYLFRNYGHLKEAEGNYFRAAGIYRKMIEKDPENSMAEYYLSYTYSYHGSLYSGMENLEKAERYYEEAVELMDKGYKEFPEDYAYAVSLANIHESYGVAFSNRKYLEKSIANYTKAREIYRDLIINHPSEFARNKKIAMYLDDLGDRFSKIGEFEAAELCYKDKLDVFRNLHDEDPEDLNPIFEISDTYEELGDIFAEHGETGKAKAYYEKEIEIYESLLETEPDALDYKTYMAEVQATIGKLYLDEEPEKAQKYFEDALSVLENNFELEPEMDIHYSVLKKVLNNFIQLFKNQEEHEKAAEMYSKLLAVQQRMLDLNPEEREYKEDLAVTYTNLALLHSERGDIEQEARYHRLALDIHEKILEESSDYPLFLQRFVTGIYLLGSRLKLDEESRGKESGIVKEYLELAKKAENKLYAVKPEIMEDKELIAEIAEKMGISFRENEMYEEAIEEFKRSLAIREKLHEKNPENLNYLTVLEGIFHQMGITFLAQKDLEKAKETLEKAMDLNAKLLETDPEDFNYLARSSMIFETYSSVLENMGKSEEAAKYLAKAEEINAKLGYSNE”, which protein production is on record?
Answer: The protein production was “failed”.

Question: Which protein production does the source give for “MKMKYDPGETWRSIYRENKRCDGFNNYYDDESASYQFSENPYVWKDGKERCRTIGMQNDWTALDIGAGAGSMTVPLAKICKRVTAVEPSKTMARILSSNLKKAGLDNVQIINSRWEDAPEEIERHDIIIAAYSLMIDDIEKAVLRMNSLARKKVYLYWFAGVPYWERHCLDLWSTIYGYEYTPSPKVDLIFAVLYKHGIYPDVVNLDSERPPYERVMTTEQAMDELKDSLHLKGNDEWDELLMRYIEDNYEKKEDGCWSRGGSSRMRISWSPQP” here?
Answer: Its protein production is “failed”.

Question: Which protein production does the source give for “MKAQYFFWILFLIGFYWMIYLYQDFLMDALIAGLLCVGFFQVKVFLDKRFFNVVSSFLCVLILASVLIVPLYFIVYKSSNIIFEINFEKFSALIKWLKGIITENLSHFPTIHDGASKFLENFSAASITGYLLKISSYVGRYSLKLITDALFILGLLFFFFYYGERFYRYFLGVLPLGMNQSKKIFEEVAGILRIVLLTSLITVILEGVAFGVMIVWFGHDGWSLGILYGLASLVPAVGGALIWIPIAIYELYHGNVNEAIFIALYSILLISVLIDSVIKPILIVFIKKRIFKTTLKINEMLIFFSMIAGISQFGFWGIIVGPTITAFFIALLRLYENYFIQNEQKACE” here?
Answer: The protein production was “failed”.

Question: For “MSCRHGTTRCRSLCDYGGLSMQYVNTCPVLNVEECDRLSFMPYLFGTDFMLAELQVYALAKKWMPGYEGGFWHFIRLPEGGGYMMPDCGRVHLVSSENWFDRTVSADAAGIILTSLAINRRLAAHHDSSNPALTRLYMLRDAQLWNHITFHPECSAIYAALD”, which protein production is on record?
Answer: Its protein production is “failed”.

Question: For “MSKHTKFSPEVRDRAIRMVYEVRESRTSQWAAIEAVASKIGCTAQTLSSWIRKAAAPAAPSASGTDARVKELEREVRELKRANEILKVASAFSAQAELDRRLK”, which protein production is on record?
Answer: Its protein production is “failed”.
